We go through three molecules from paper PMC4891050, “A novel small-molecule compound targeting CD147 inhibits the motility and invasion of hepatocellular carcinoma cells” (Oncotarget, 2016).

For data set [1], the target named is T1, wild-type CD147 extracellular portion (residues 22-205) tagged with 6 x His, P35613.
T1 chain: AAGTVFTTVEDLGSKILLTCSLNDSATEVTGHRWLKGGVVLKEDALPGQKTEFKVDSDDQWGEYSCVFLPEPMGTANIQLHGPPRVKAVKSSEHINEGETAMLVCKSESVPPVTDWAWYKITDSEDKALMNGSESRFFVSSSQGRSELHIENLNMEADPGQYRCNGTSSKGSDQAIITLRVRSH
Kind of data set: native gel or EMSA; non-denaturing SDS-PAGE: 5 ug purified protein with DMSO or AC-73 (0, 0.1, 0.25 or 0.5 uM), 5x Laemmli sample buffer lacking SDS, 10% SDS-PAGE without boiling, immunoblot with anti-His6; monomer and dimer bands. To be noted: remark: other sources report otherwise. (Mobility shift assays separate free from complexed probe on a gel.)

Data set [2] deals with the molecule itself. The description is as above.

Changes are numbered by the printed parent chain. Numbers in names are those of the source.

B1: wild-type CD147 extracellular portion (residues 22-205) tagged with 6 x His, P35613-2 22-205 (domain or fragment)
chain: T1 chain
By stoichiometry N is commonly meant the number of molecules, sites or subunits per partner or assembly. With B1, the stoichiometry N in data set [1] was found to be 2.

B2: CD147 mutant E73A, extracellular portion tagged with 6 x His (domain or fragment, UniProt P35613-2 22-205, looked up)
chain: T1 chain with E52A
notes: CD147 (EMMPRIN, HAb18G/CD147), extracellular portion, residues 22-205 as for CD147wt, with E73A; also called CD147mt; CD147mts; source: prokaryotic expression system, purified
For the molecule B2, the binding result in data set [2] was “binds”.

B3: CD147 mutant E64A, extracellular portion tagged with 6 x His (domain or fragment, UniProt P35613-2 22-205, looked up)
chain: T1 chain with E43A
notes: CD147 (EMMPRIN, HAb18G/CD147), extracellular portion, residues 22-205 as for CD147wt, with E64A; also called CD147mt; CD147mts; source: prokaryotic expression system, purified
For the molecule B3, the binding result in data set [2] is on record as “binds”.
